Results: publication PMC5342555, “ATAD2 is an epigenetic reader of newly synthesized histone marks during DNA replication” (Oncotarget, 2016)

Molecular target: H4K12ac-TAMRA peptide
Assay: fluorescence polarisation
Conditions: 8 nM H4K12ac-TAMRA peptide; value read at the highest BD mut concentration shown, est. about 500-600 nM; parent: est. 80; read off a plot

Chain of ATAD2^342-1390 WT (Q6PL18 342-1390 V1013A/Y1021A/I1074A, change not shown): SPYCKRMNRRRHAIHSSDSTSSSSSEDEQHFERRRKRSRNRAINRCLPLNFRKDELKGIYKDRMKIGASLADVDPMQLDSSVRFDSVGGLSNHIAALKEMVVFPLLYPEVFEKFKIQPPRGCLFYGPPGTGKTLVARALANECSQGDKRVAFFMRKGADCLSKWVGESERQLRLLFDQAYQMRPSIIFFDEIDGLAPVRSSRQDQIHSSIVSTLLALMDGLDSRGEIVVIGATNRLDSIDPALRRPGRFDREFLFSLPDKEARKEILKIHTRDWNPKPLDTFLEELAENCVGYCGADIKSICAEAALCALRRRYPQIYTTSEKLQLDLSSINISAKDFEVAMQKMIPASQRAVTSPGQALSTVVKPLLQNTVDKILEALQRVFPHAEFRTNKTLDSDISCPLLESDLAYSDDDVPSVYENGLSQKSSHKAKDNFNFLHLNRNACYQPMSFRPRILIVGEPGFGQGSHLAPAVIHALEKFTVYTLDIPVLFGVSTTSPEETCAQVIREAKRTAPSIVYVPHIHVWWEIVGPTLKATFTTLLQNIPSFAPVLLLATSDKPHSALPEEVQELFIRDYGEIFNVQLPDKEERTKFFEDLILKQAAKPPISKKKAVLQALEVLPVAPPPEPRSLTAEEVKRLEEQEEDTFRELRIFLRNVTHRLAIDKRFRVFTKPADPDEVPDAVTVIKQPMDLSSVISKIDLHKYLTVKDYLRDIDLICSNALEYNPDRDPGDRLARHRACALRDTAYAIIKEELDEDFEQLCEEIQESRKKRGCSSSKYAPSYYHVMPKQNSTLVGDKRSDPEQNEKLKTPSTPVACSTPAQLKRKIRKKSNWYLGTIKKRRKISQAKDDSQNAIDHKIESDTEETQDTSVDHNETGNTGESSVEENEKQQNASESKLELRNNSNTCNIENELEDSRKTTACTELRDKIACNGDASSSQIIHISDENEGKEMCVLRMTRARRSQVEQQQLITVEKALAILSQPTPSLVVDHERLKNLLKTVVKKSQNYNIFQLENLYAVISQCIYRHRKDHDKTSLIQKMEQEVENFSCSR

## ATAD2^342-1390 WT (from UniProt Q6PL18) BD mut
  response: 14 mP
